Consider 10 molecules from US20190359698A1 (YAMAGUCHI UNIVERSITY, published 2019).

Assay [1] addresses T1, GPC3 N-terminal fragment (polypeptide consisting of the amino acid sequence represented by SEQ ID NO: 155) (human).
T1 construct: domain: transmembrane domain; also called GPC3 N-terminal fragment-expressing cell line; N-terminal polypeptide of GPC3; not shown: HA tag added to the N terminus by the pDisplay vector; myc tag added to the C terminus of the PDGFR by the pDisplay vector
In words: FCM of IgG on GPC3 N-terminal fragment-expressing cell line.

Assay [2] concerns the target T2, GPC3 C-terminal fragment (polypeptide consisting of the amino acid sequence represented by SEQ ID NO: 156) (human).
T2 construct: domain: transmembrane domain; also called GPC3 C-terminal fragment-expressing cell line; C-terminal polypeptide of GPC3; not shown: HA tag added to the N terminus by the pDisplay vector; myc tag added to the C terminus of the PDGFR by the pDisplay vector
Nature of the assay: FCM of IgG on GPC3 C-terminal fragment-expressing cell line.

T2 sequence (P09619 other isoform, or with tags, fused parts or gaps): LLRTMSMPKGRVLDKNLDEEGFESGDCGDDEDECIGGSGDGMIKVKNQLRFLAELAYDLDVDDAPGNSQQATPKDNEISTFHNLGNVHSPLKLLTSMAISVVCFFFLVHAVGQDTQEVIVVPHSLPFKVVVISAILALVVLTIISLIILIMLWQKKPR
T1 sequence (P09619 other isoform, or with tags, fused parts or gaps): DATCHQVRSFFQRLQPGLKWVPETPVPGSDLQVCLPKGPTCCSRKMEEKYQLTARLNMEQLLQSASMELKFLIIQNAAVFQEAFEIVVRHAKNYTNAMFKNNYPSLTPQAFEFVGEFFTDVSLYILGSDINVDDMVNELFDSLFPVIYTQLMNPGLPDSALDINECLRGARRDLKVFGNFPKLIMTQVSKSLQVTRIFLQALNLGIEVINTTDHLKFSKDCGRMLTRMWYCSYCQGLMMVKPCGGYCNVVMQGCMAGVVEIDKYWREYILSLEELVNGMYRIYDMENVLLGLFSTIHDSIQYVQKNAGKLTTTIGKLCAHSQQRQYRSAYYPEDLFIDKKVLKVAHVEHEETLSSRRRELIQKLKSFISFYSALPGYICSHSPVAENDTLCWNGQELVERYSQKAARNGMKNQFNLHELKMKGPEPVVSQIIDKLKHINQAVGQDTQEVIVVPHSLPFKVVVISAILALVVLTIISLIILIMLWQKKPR

B1: IgG clone TF1413-02e004 (antibody, V domains shown)
VH: QVQLQQSGAELVKPGAPVKLSCKASGYTFTSYWMNWVKQRPGRGLEWIGRIDPSDSETHYNQKFKDEATLTVDKSSSTAYIQLSSLTSEDSAVYYCARGYYAMDYWGQGTSVTVSS
VL: DIVLTQSPKFMSTSVGDRVSITCKASQDVSTAVAWYQQKPGQSPKLLIYSASYRYTGVPDRFTGSGSGTDFTFTISSVQAEDLAVYYCQQHYSTPTFGGGTKLEIKR
notes: also called TF1413-02e004 IgG antibody
As to B1, the binding result in assay [1] was “binds”; in assay [2] it was “no binding”.

B2: IgG clone TF1413-03e004 (antibody, V domains shown)
VH: QVQLKQSGAELVKPGAPVKLSCKASGYTFTSYWMNWVKQRPGRGLEWIGRIDPSDSETHYNQKFKDKATLTVDKSSSTAYIQLSSLTSEDSAVYYCARGYYGSNYWGQGTTLTVSS
VL: DIKMTQSPKFMSTSVGDRVSVTCKASQNVGTNVAWYQQKPGQSPKALIYSASYRYSGVPDRFTGSGSGTDFTLTISNVQSEDLAEYFCQQYNSYPLTFGAGTKLELKR
notes: also called TF1413-03e004 IgG antibody
With B2, the binding result in assay [2] was “no binding”.

B3: IgG clone TF1413-03e015 (antibody, V domains shown)
VH: EVQLQQSGPELVKPGASMKISCKASGYSFTGYTMNWVKQSHGKNLEWIGLINPYNGGTSYNQKFKGKATLTVDKSSSTAYMELLSLTSEDSAVYYCARGDYYPPYAMDYWGQGTSVTVSS
VL: DIVMSQSPKFMSTSVGDRVSVTCKASQNVGTNVAWYQQKPGQSPKPLIYSASYRYSGVPDRFTGSGSGTDFTLTISNVQSEDLAEYFCQQYNRYPLTFGVGTKLEIKR
notes: also called TF1413-03e015 IgG antibody
On to B3, for which, in assay [1], the binding result was “no binding”.

B4: IgG clone TF1413-02e030 (antibody, V domains shown)
VH: EVQLQQSGAELVRPGALVKLSCKASGFNIKDYYMHWVKQRPEQGLEWIGWIDPENGNTIYDPKFQGKASITADTSSNTAYLQLSSLTSEDTAVYYCAISTMITTLDYWGQGTTLTVSS
VL: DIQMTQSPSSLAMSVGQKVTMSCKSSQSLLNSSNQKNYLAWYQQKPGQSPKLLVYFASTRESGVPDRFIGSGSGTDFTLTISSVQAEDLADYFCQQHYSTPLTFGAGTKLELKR
notes: also called TF1413-02e030 IgG antibody
With B4, in assay [2], the binding result is listed as “no binding”.

B5: IgG clone TF1413-02d028 (antibody, V domains shown)
VH: QVQLKESGPELEKPGASVKISCKASGYSFTGYNMNWVKQSNGKSLEWIGNIDPYYGGTSYNQKFKGKATLTVDKSSSTAYMQLKSLTSEDSAVYYCARGDYRAYYFDYWGQGTTLTVSS
VL: DIQMTQSPKFMSTSVGDRVSITCKASQNVRTAVAWYQQKPGQSPKALIYLASNRHTGVPDRFTGSGSGTDFTLTISNVQSEDLADYFCLQHWNYPLTFGAGTKLELKR
notes: also called TF1413-02d028 IgG antibody; scFv clone [TF1413-02d028] antibody
In the case of B5, the values for the binding result in assay [1] and in assay [2] were “binds” and “no binding”, respectively.

B6: IgG clone TF1413-02e040 (antibody, V domains shown)
VH: EVMLVESGPELVKPGASMKISCKASGYSFTGYTMNWVKQSHGKNLEWIGLINPYNGGTSYNQNFKGKATLTVDKSSSTAYMELLSLTSEDSAVYYCARGYYGRFDYWGQGTTLTVSS
VL: DILLTQSPKFMSTSVGDRVSITCKASQNVRTAVAWYQQKPGQSPKALIYLASNRHTGVPDRFTGSGSGTDFTLTISNVQSEDLADYFCLQHWNYPLTFGAGTKLELKR
notes: also called TF1413-02e040 IgG antibody
B6: the values for the binding result in assay [1] and in assay [2] were “binds” and “no binding”, respectively.

B7: IgG clone TF1413-03e034 (antibody, V domains shown)
VH: EVQLQQSGPELEKPGASVKISCKASGYSFTGYNMNWVKQSNGKSLEWIGNIDPYYGGTSYNQKFKGKATLTVDKSSSTAYMQLKSLTSEDSAVYYCARGNYGYYAMDYWGQGTSVTVSS
VL: DIVMSQSPKFMSTSVGDRVSITCKASQNVRTAVAWYQQKPGQSPKALIYLASNRHTGVPDRFTGSGSGTDFTLTISNVQSEDLADYFCLQHWNYPLTFGAGTKLELKR
notes: also called TF1413-03e034 IgG antibody
In the case of B7, the binding result is reported as “binds” in assay [1] and “no binding” in assay [2].

B8: IgG clone TF1413-02e014 (antibody, V domains shown)
VH: QVQLKQSGAELVRSGASVKLSCTASGFNIKDYYMHWVKQRPEQGLEWIGWIDPENGDTEYAPKFQGKATMTADTSSNTAYLQLSSLTSEDTAVYYCNAGYYDYDGYAMDYWGQGTSVTVSS
VL: DIVLTQSPKFMSTSVGDRVSITCKASQDVGTAVAWYQQKPGQSPKLLIYWASTRHTGVPDRFTGSGSGTDFTLTISNVQSEDLADYFCQQYSSYPLTFGGGTKLEIKR
notes: also called TF1413-02e014 IgG antibody
On to B8, for which the binding result in assay [1] was “binds”; in assay [2], “no binding”.

B9: IgG clone TF1413-03e005 (antibody, V domains shown)
VH: QVQLKESGAELVRSGASVKLSCTASGFNIKDYYMHWVKQRPEQGLEWIGWIDPENGDTEYAPKFQGKATMTADTSSNTAYLQLSSLTSEDTAVYYCNAFYYDYDGYAMDYWGQGTSVTVSR
VL: DVVMTQTPSSLSASLGERVSLTCRASQEISGYLSWLQQKPDGTIKRLIYAASTLDSGVPKRFSGSRSGSDYSLTISSLESEDFADYYCLQYASYPLTFGAGTKLELKR
notes: also called TF1413-03e005 IgG antibody
With B9, the values for the binding result in assay [1] and in assay [2] were “binds” and “no binding”, respectively.

B10: IgG clone TF1413-02d039 (antibody, V domains shown)
VH: EVKLVESGGGLVKPGGSLKLSCAASGFAFSSYDMSWVRQTPEKRLEWVAYISSGGGSTYYPDTVKGRFTISRDNAKNTLYLQMSSLKSEDTAMYYCARRGLRRAMDYWGQGTSVTVSS
VL: DVVMTQTPLSLPVSLGDQASISCRSSQSLVHSNGNTYLHWYLQKPGQSPKLLIYKVSNRFSGVPDRFSGSGSGTDFTLKISRVEAEDLGVYFCSQSTHVPLTFGAGTKLELKR
notes: also called TF1413-02d039 IgG antibody
For B10, the binding result in assay [2] is reported as “no binding”.
